Results published in the supplement of paper PMC10126150.
± gives the standard deviation of the averaged measurements.

The sequences below were run on ATP (assay: switch fluorescence ratio, 500 uM ATP over buffer (Cy3 cluster intensity, sum of 5 cycles each) (fold (ratio)); higher = stronger signal-on switching upon ATP binding; sequences stand for … in TCGTCGGCAGCGTCAGATGTGTATAAGAGACAGTTTTTTTTTTTTTTTTTTTTTTTTT…TC). Details: aptamer strand: ATP DNA aptamer (quencher-CACCTGGGGGAGTATTGCGGAGGAAGG + anchor), 100 nM annealed; ATP concentration: 500 uM.
Summary of the method: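 Five buffer/ATP imaging cycles were run on Cy3-labelled switching-strand clusters on a modified Illumina MiSeq flow-cell, with NaOH stripping and re-annealing between cycles. In each cycle, clusters annealed to 100 nM quencher-labelled ATP aptamer were imaged in selection buffer, then after 15 min with 500 uM ATP at 22 °C. Per cluster, the fluorescence ratio is summed target-cycle over summed buffer-cycle Cy3 intensity, averaged per switch-domain sequence. Only clusters within 100-1000 RFU were kept.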
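Note: ATP exposure 15 min at 22 °C before imaging.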

In order of rising switch fluorescence ratio:
1. GCTTACTGCT  0.947 ± 0.029
2. GCTTGGATCC  0.966 ± 0.022
3. GCTTAATGTG  0.968 ± 0.027
4. GCTTATAGGC  0.97 ± 0.032
5. GCTGACTTGG  0.9714 ± 0.0081
6. GCTGTTGGCG  0.9728 ± 0.0043
7. GCTGTATGTT  0.974 ± 0.022
8. GCTTTATGTA  0.975 ± 0.025
9. GCTTATTCAG  0.976 ± 0.013
10. GCTCGAAGTT  0.978 ± 0.029
11. GCTTTTAGAT  0.9794 ± 0.0028
12. GCTCTTGATG  0.98 ± 0.041
13. GCTGGGAATG  0.98 ± 0.033
14. GCTGCCTAAA  0.9809 ± 0.0019
15. GCTGTTTCGG  0.981 ± 0.01
16. GCTTATTGTA  0.9813 ± 0.0081
17. GCTTGGAGGG  0.983 ± 0.027
18. GCTTTGGTTT  0.983 ± 0.022
19. GCTGAGGATA  0.984 ± 0.013
20. GCTTGTTACG  0.98379 ± 0.00012
21. GCTTTGTTGG  0.984 ± 0.035
22. GCTTAAAAAT  0.986 ± 0.095
23. GCTTGAAATT  0.986 ± 0.062
24. GCTGGAGTAT  0.987 ± 0.026
25. GCTGGGGGCG  0.987 ± 0.025
26. GCTTTTCATT  0.988 ± 0.038
27. GCTCTTAGTG  0.9894 ± 0.0032
28. GCTGTAAGTT  0.9897 ± 0.0067
29. GCTTATCAGC  0.991 ± 0.013
30. GCTTTCCTTA  0.991 ± 0.04
31. GCTTTGGTGA  0.991 ± 0.019
32. GCTGATTTTT  0.994 ± 0.025
33. GCTCGAACGA  0.995 ± 0.013
34. GCTCGCCTGA  0.995 ± 0.025
35. GCTGAGCGGA  0.995 ± 0.035
36. GCTCTATTTT  0.997 ± 0.019
37. GCTGACGGTT  0.997 ± 0.024
38. GCTGTATTAA  0.997 ± 0.038
39. GCTGATCTTA  0.998 ± 0.034
40. GCTGTAATCT  0.999 ± 0.027
41. GCTTGTGTGA  0.999 ± 0.01
42. GCTCGTATTA  1 ± 0.016
43. GCTGCCACTA  1.003 ± 0.004
44. GCTGGGAATT  1 ± 0.016
45. GCTGGGACGT  1 ± 0.025
46. GCTGGGACTT  1.004 ± 0.0078
47. GCTGGGGGAT  1 ± 0.044
48. GCTGTGGGTG  1 ± 0.021
49. GCTGTGTTTT  1 ± 0.034
50. GCTGTTCAAG  1 ± 0.026
51. GCTGTTTTGT  1.004 ± 0.0092
52. GCTTAAGTTA  1 ± 0.057
53. GCTTATGGGA  1 ± 0.039
54. GCTTCAGAGT  1 ± 0.02
55. GCTTGTCTCG  1 ± 0.053
56. GCTTTTAGGA  1 ± 0.038
57. GCTCGGGGGC  1.008 ± 0.0081
58. GCTCGGTTAG  1.01 ± 0.018
59. GCTCGGTTG  1.01 ± 0.022
60. GCTGATATAA  1.01 ± 0.019
61. GCTGCGAGGT  1.012 ± 0.0056
62. GCTGCTGCAC  1.01 ± 0.049
63. GCTGGGATTG  1.01 ± 0.035
64. GCTGGGTAGT  1.01 ± 0.022
65. GCTGGTGCAC  1.01 ± 0.026
66. GCTGTGTGGC  1.01 ± 0.047
67. GCTGTGTGTC  1.006 ± 0.0024
68. GCTTGGATTG  1.01 ± 0.054
69. GCTTTCATTG  1.014 ± 0.0046
70. GCTTTTCTTG  1.01 ± 0.011
71. GCTTTTGGAG  1.008 ± 0.0047
72. GCTCAACTAA  1.02 ± 0.02
73. GCTGGGAGGA  1.02 ± 0.04
74. GCTGGGGCCA  1.023 ± 0.0017
75. GCTGGTGATC  1.02 ± 0.012
76. GCTGTAGCGG  1.02 ± 0.031
77. GCTGTGGATG  1.02 ± 0.024
78. GCTTACAACG  1.02 ± 0.029
79. GCTTCAGGCC  1.02 ± 0.022
80. GCTTCTGCGT  1.02 ± 0.033
81. GCTTGTTGGG  1.02 ± 0.038
82. GCTGGCAATT  1.027 ± 0.0069
83. GCTGGTTGTT  1.03 ± 0.041
84. GCTGCTAATA  1.039 ± 0.01
85. GCTTGGGTGC  1.04 ± 0.067
86. GCTCTGGGTA  1.05 ± 0.0082
87. GCTCGAAATG  1.07 ± 0.031
88. GCTGTTCCTC  1.07 ± 0.011
89. GCTTCTTTTG  1.09 ± 0.15
90. GCTTAAAGAC  1.1 ± 0.013
91. GCTTCAGTAG  1.11 ± 0.02
92. GCTGCAGGGG  1.144 ± 0.0063
93. GCTCAAGCTA  1.15 ± 0.021
94. GCTCGGGTGT  1.15 ± 0.33
95. GCTCGCAGAT  1.21 ± 0.042
96. GCTTCAGGAG  1.27 ± 0.024
97. GCTTCAAGAC  1.58 ± 0.0071
98. GCTTACTCTG  1.62 ± 0.085
99. GCTCCTCACA  1.67 ± 0.2
100. GCTTGCTCCG  4.46 ± 0.87
